From patent US20210355227A1 (Regeneron, published 2021)

Assays:
[1] = target: T1, human GLP1R expressed with mouse IgG2a Fc (human); assay: SPR Biacore 4000, mAb captured by anti-human Fc, 37 C
T1 construct: It is probably the N-terminal region, as for hGLP1R-MMH, but the sentence is ambiguous; also called hGLP1R-mFc
T1 chain: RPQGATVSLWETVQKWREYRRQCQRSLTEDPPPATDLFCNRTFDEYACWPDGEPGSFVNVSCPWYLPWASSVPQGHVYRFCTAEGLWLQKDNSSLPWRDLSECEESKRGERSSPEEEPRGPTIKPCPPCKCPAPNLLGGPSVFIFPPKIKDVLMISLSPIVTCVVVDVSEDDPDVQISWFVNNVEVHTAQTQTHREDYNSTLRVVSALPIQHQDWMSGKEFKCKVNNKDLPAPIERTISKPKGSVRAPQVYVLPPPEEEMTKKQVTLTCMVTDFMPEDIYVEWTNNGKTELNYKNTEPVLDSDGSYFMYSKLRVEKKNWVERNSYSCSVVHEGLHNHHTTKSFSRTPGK
Description: (§1) The equilibrium dissociation constant (KD) for GLP1R binding to selected GLP1R monoclonal antibodies (mAbs) was determined using a real-time surface plasmon resonance biosensor using a Biacore 4000 instrument. All binding studies were performed in 10 mM HEPES, 150 mM NaCl, 3 mM EDTA, and 0.05% v/v Surfactant Tween-20, pH 7.4 (HBS-ET) running buffer at 25° C. and 37° C. The Biacore CM5 sensor chip surface was first derivatized by amine coupling with human Fc specific mouse mAb to capture different GLP1R mAbs. […] At the end of each cycle, the GLP1R mAb capture surface was regenerated using a 12 sec injection of 20 mM phosphoric acid.
(§2) The association rate (kₐ) and dissociation rate (kd) were determined by fitting the real-time binding sensorgrams to a 1:1 binding model with mass transport limitation using Scrubber 2.0 c curve-fitting software. Binding dissociation equilibrium constant (KD) and dissociative half-life (t½) were calculated from the kinetic rates as:

[2] = target: T2, in-line fusion protein of human desA-GLP1 and GLP1R-MMH (human); assay: SPR Biacore 4000, mAb captured by anti-human Fc, 25 C
T2 construct: also called hdesA-GLP1_GLP1R-MMH
T2 chain: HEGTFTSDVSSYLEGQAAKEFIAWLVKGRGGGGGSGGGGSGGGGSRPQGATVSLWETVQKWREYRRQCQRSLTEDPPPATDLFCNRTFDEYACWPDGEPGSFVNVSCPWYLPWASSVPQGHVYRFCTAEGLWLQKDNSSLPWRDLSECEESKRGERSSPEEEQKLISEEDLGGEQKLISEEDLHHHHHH
Description: as §1, §2

[3] = target: T3, mouse GLP1R-MMH (mouse); assay: SPR Biacore 4000, mAb captured by anti-human Fc, 37 C
T3 construct: It was injected at 100 nM only; also called mGLP1R-MMH; monomeric mouse GLP1R
T3 chain: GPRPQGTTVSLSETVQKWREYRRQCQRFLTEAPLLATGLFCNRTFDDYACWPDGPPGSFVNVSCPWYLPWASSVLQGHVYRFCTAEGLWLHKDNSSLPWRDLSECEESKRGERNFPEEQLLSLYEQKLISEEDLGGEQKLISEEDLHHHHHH
Description: as §1, §2

[4] = target: T4, N-terminal region of human GLP1R-MMH (human); assay: SPR Biacore 4000, mAb captured by anti-human Fc, 25 C
T4 construct: also called hGLP1R-MMH
T4 chain: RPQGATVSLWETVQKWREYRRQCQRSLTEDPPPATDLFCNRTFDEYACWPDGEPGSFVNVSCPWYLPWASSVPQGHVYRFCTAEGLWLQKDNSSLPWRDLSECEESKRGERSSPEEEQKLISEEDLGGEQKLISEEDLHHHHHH
Description: as §1
(§3) The association rate (kₐ) and dissociation rate (kd) were determined by fitting the real-time binding sensorgrams to a 1:1 binding model with mass transport limitation using Scrubber 2.0 c curve-fitting software.

[5] = target: T5, macaca fascicularis GLP1R-MMH (macaca fascicularis); assay: SPR Biacore 4000, mAb captured by anti-human Fc, 37 C
T5 construct: also called mfGLP1R-MMH; monomeric cynomolgus GLP1R
T5 chain: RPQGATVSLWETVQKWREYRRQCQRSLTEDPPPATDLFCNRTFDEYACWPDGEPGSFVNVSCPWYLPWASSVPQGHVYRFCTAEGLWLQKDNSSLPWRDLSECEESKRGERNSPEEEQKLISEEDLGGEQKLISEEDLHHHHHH
Description: as §1, §3

[6] = target: T5, macaca fascicularis GLP1R-MMH; assay: SPR Biacore 4000, mAb captured by anti-human Fc, 25 C
Description: as §1, §3

[7] = target: T1, human GLP1R expressed with mouse IgG2a …; assay: as above
Description: as §1, §2

[8] = target: T2, in-line fusion protein of human …; assay: SPR Biacore 4000, mAb captured by anti-human Fc, 37 C
Description: as §1, §3

[9] = target: T3, mouse GLP1R-MMH; assay: SPR Biacore 4000, mAb captured by anti-human Fc, 25 C
Description: as §1, §2

[10] = target: T4, N-terminal region of human GLP1R-MMH; assay: SPR Biacore 4000, mAb captured by anti-human Fc, 37 C
Description: as §1, §3

[11] = target: full-length human GLP1R on HEK293/CRE-luc/GLP1R cells (human, UniProt P43220 24-463); assay: cell-based or functional assay

B1: mAb36986 (antibody, human IgG4 S228P, kappa, V domains shown)
VH: QVQLVQSGTEVKKPGASVKVSCMASGYTFTTYGISWVRQAPGQGLEWMGWISAYNGNTKYAQRLQGRVTMTTDTSTTTAYMGLRGLRSDDTAVYFCARVTLSGRFDYWGQGTLVTVSP
VL: DIQMTQSPSSLSASVGDRVTITCQASQDISDYLNWYQQKPGKAPKLLIYDASNLETGVPSRFSGSGSGTDFTFTIRSLQPEDIATYYCQQYDNLPYTFGQGTKLEIKR
notes: In SPR the mAbs were captured by a human-Fc-specific antibody
[1]
  100 nM hGLP1R-mFc Bound (RU): 246 RU
  Kd: 3.35 nM
  koff: 0.000432 s⁻¹
  kon: 129000 M⁻¹ s⁻¹
  t½: 27 min
[2]
  100 nM hdesA-GLP1_GLP1R-MMH Bound (RU): 13 RU
  Kd: 3.56 nM
  koff: 0.000108 s⁻¹
  kon: 30400 M⁻¹ s⁻¹
  t½: 107 min
[3]
  100 nM mGLP1R-MMH Bound (RU): 70 RU
  Kd: 74.7 nM
  koff: 0.0485 s⁻¹
  kon: 649000 M⁻¹ s⁻¹
  t½: 0.24 min
[4]
  100 nM hGLP1R-MMH Bound (RU): 115 RU
  Kd: 0.139 nM
  koff: 9.97e-05 s⁻¹
  kon: 717000 M⁻¹ s⁻¹
  t½: 116 min
[5]
  100 nM mfGLP1R-MMH Bound (RU): 128 RU
  Kd: 1.59 nM
  koff: 0.000501 s⁻¹
  kon: 315000 M⁻¹ s⁻¹
  t½: 23 min
[6]
  100 nM mfGLP1R-MMH Bound (RU): 103 RU
  Kd: 0.424 nM
  koff: 0.000102 s⁻¹
  kon: 240000 M⁻¹ s⁻¹
  t½: 113 min
[7]
  100 nM hGLP1R-mFc Bound (RU): 187 RU
  Kd: 0.735 nM
  koff: 7.64e-05 s⁻¹
  kon: 104000 M⁻¹ s⁻¹
  t½: 151 min
[8]
  100 nM hdesA-GLP1_GLP1R-MMH Bound (RU): 28 RU
  Kd: 60.4 nM
  koff: 0.000987 s⁻¹
  kon: 16300 M⁻¹ s⁻¹
  t½: 12 min
[9]
  100 nM mGLP1R-MMH Bound (RU): 88 RU
  Kd: 20.1 nM
  koff: 0.00902 s⁻¹
  kon: 449000 M⁻¹ s⁻¹
  t½: 1.3 min
[10]
  100 nM hGLP1R-MMH Bound (RU): 135 RU
  Kd: 0.594 nM
  koff: 0.000544 s⁻¹
  kon: 915000 M⁻¹ s⁻¹
  t½: 21 min
[11]
  % Inhibition of human GLP1R activation by 40 pM GLP1 (CRE-luciferase reporter): 100%
  IC50 [M] of inhibition of human GLP1R activation by 40 pM GLP1 (CRE-luciferase reporter): 1.69e-09 M

B2: mAb37639 (antibody, human IgG4 S228P, kappa, V domains shown)
VH: EVQLLESGGGVVQPGGSLRLSCVASGFTFSSYAMSWVRQAPGKGLEWVSSISGSGGSTDNADSVKGRFTISRDNSKNTLYLQMNSLRAEDTAVYYCAKDRITIFGVVLNGAFDIWGQGTMVTVSS
VL: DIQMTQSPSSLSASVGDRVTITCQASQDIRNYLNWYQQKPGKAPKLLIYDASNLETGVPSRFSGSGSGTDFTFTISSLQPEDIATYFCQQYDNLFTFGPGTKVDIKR
notes: as for B1
[1]
  100 nM hGLP1R-mFc Bound (RU): 185 RU
  Kd: 3.52 nM
  koff: 0.000354 s⁻¹
  kon: 101000 M⁻¹ s⁻¹
  t½: 33 min
[2]
  100 nM hdesA-GLP1_GLP1R-MMH Bound (RU): 8 RU
  Kd: 16 nM
  koff: 0.00019 s⁻¹
  kon: 11900 M⁻¹ s⁻¹
  t½: 61 min
[3]
  100 nM mGLP1R-MMH Bound (RU): 97 RU
  Kd: 22.1 nM
  koff: 0.00959 s⁻¹
  kon: 435000 M⁻¹ s⁻¹
  t½: 1.2 min
[4]
  100 nM hGLP1R-MMH Bound (RU): 103 RU
  Kd: 0.474 nM
  koff: 0.000186 s⁻¹
  kon: 393000 M⁻¹ s⁻¹
  t½: 62 min
[5]
  100 nM mfGLP1R-MMH Bound (RU): 110 RU
  Kd: 1.94 nM
  koff: 0.000418 s⁻¹
  kon: 215000 M⁻¹ s⁻¹
  t½: 28 min
[6]
  100 nM mfGLP1R-MMH Bound (RU): 83 RU
  Kd: 1.42 nM
  koff: 0.000195 s⁻¹
  kon: 137000 M⁻¹ s⁻¹
  t½: 59 min
[7]
  100 nM hGLP1R-mFc Bound (RU): 122 RU
  Kd: 2.37 nM
  koff: 0.000156 s⁻¹
  kon: 65900 M⁻¹ s⁻¹
  t½: 74 min
[8]
  100 nM hdesA-GLP1_GLP1R-MMH Bound (RU): 21 RU
  Kd: 74.2 nM
  koff: 0.00127 s⁻¹
  kon: 17100 M⁻¹ s⁻¹
  t½: 9 min
[9]
  100 nM mGLP1R-MMH Bound (RU): 85 RU
  Kd: 16.9 nM
  koff: 0.00454 s⁻¹
  kon: 269000 M⁻¹ s⁻¹
  t½: 2.5 min
[10]
  100 nM hGLP1R-MMH Bound (RU): 123 RU
  Kd: 0.632 nM
  koff: 0.000422 s⁻¹
  kon: 668000 M⁻¹ s⁻¹
  t½: 27 min
[11]
  % Inhibition of human GLP1R activation by 40 pM GLP1 (CRE-luciferase reporter): 100%
  IC50 [M] of inhibition of human GLP1R activation by 40 pM GLP1 (CRE-luciferase reporter): 6.55e-09 M
